Source: the supplement of paper PMC10567573

B1: PLAGL1 (parent)
chain: TKEKKHQCDHCERCFYTRKDVRRH
B2: ZBED1 (parent)
chain: EQVFSLGDGVSGGFFGIRDSSFL

Variants of: B1
Test: protein stability index of a GFP-peptide fusion (GPS, HEK-293T) (PSI 1-6); higher = more stable
Conditions: c terminus: a fixed tail appended
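Also: lentivirally expressed fusions sorted by FACS into six bins by GFP to DsRed ratio, PSI derived from sequencing read proportions per bin multiplied by bin number.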

Protein stability index, by site and new letter:
K19: I 2.52 | H 3.55 | P 3.33 | L 2.9 | V 2.95 | R 4.12 | M 3.06 | G 3.52 | D 3.39 | N 3.3 | S 3.17 | W 3.13 | Y 3.25 | Q 3.89 | C 3.22 | A 3.66 | T 3.4 | F 3.05 | E 4.03
H24: C 3.31 | Y 2.79 | R 3.37 | P 3.24 | N 2.89 | E 4.12 | T 3.63 | M 2.88 | D 3.84 | G 3.52 | Q 3.58 | V 3.11 | F 3.06 | S 3.27 | L 3.17 | A 3.79 | K 3.62 | I 3.24 | W 3.03
C11: G 3.61 | I 3.65 | W 3.46 | S 3.42 | V 3.73 | L 3.71 | D 3.96 | A 3.62 | F 3.27 | P 3.98 | M 3.57 | H 3.31 | Q 3.91 | K 3.86 | E 4.31 | Y 3.22 | N 3.39 | T 3.24 | R 4.11
V21: T 3.34 | G 3.65 | S 3.01 | F 3.47 | H 3.7 | M 3.52 | W 3.58 | Q 3.25 | A 3.68 | K 3.88 | R 3.95 | E 3.9 | C 3.85 | P 2.97 | Y 3.98 | I 3.25 | L 3.74 | D 3.53 | N 3.54
H10: Y 2.46 | W 2.67
R18: D 3.82 | S 3.5 | G 2.87 | Y 3.2 | N 3.58 | T 3.29 | F 2.76 | Q 3.38 | M 2.95 | K 3.09 | L 3.76 | W 3.27 | P 3.13 | C 3.06 | V 3.27 | H 3.29 | I 3.06 | E 3.61 | A 3.54
D20: V 3.71 | G 3.21 | N 3.37 | R 3.84 | Q 3.43 | P 3.1 | E 3.96 | K 3.29 | S 3.22 | M 3.44 | H 3.43 | L 3.14 | A 3.61 | Y 3.28 | W 3.03 | T 2.96 | I 2.65 | F 3.14 | C 3.02
T17: Q 3.44 | E 3.81 | S 3.12 | Y 3.09 | R 3.63 | P 3.1 | I 3.01 | D 3.61 | C 4.01 | G 3.05 | M 3.26 | W 2.74 | K 3.4 | N 3.7 | A 3.6 | H 3.29 | V 3.22 | F 4.01 | L 3.77
C14: K 3.78 | Q 3.41 | W 3.65 | V 3.42 | Y 3.27 | H 3.12 | L 3.06 | I 2.65 | M 3.52 | D 3.54 | T 3.6 | A 3.11 | S 3.28 | R 3.16 | G 4.02 | P 3.29 | E 3.69 | F 3.18 | N 3.25
R22: P 3.62 | C 4.07 | Y 3.69 | F 3.51 | W 3.27 | D 4.31 | V 3.76 | L 3.84 | K 3.76 | M 3.65 | T 4.04 | I 3.48 | A 3.54 | G 3.61 | H 3.96 | S 3.71 | N 4.04 | Q 3.51 | E 4.73
R23: Q 3.84 | K 4.27 | I 3.67 | D 4.49 | H 3.85 | F 3.33 | T 3.71 | S 3.7 | G 4.31 | C 3.49 | Y 3.53 | A 4.13 | P 4.04 | N 4.01 | L 3.92 | W 3.08 | M 3.79 | E 4.26 | V 3.08
E12: G 4.02 | C 3.27 | Q 3.15 | N 3.19 | R 3.15 | H 3.34 | P 4.17 | V 3.24 | T 3.15 | W 2.69 | S 3.03 | D 3.6 | M 3.15 | A 3.05 | K 3.09 | I 2.89 | Y 3.3 | F 3.12 | L 3
F15: H 3.46 | M 4.05 | C 2.83 | L 3.9 | K 3.94 | R 3.77 | A 3.79 | G 2.83 | P 3.06 | E 3.61 | T 4.24 | I 3.62 | D 2.98 | Q 3.79 | Y 3.48 | N 3.48 | W 3.41 | V 3.47 | S 3.05
R13: C 3.39 | H 3.87 | F 3 | I 2.62 | E 3.66 | W 2.61 | D 3.79 | A 3.77 | M 3.26 | Q 4.24 | T 3.06 | L 3.27 | G 3.25 | K 3.54 | V 3.41 | Y 2.63 | P 2.75 | S 3.35 | N 3.81
Y16: W 3.26 | K 3.14 | L 3.4 | G 3.79 | F 3.58 | H 3.46 | Q 3.88 | I 3.18 | M 3.75 | E 4.19 | V 3.75 | T 3.58 | C 3.74 | R 4 | S 3.63 | A 4.02 | P 3.13 | D 4.12 | N 4.2

Variants of: B2
Test: as above
Conditions: c terminus: native

Protein stability index, by site and new letter:
V3: R 3.55 | Y 3.01 | E 4.17 | L 2.91 | P 4.06 | W 2.55 | F 2.52 | I 2.9 | K 3.7 | S 3.63 | H 3.99 | G 4.03 | A 4.03 | N 3.82 | M 3.15 | D 4.19 | C 2.92 | T 3.6 | Q 4.23
Q2: T 3.04 | D 3.7 | I 1.84 | S 3.44 | L 1.8 | P 3.46 | V 2.17 | N 2.98 | A 2.44 | C 1.96 | H 3.22 | W 2.03 | G 3.05 | F 1.72 | Y 2.43 | R 3 | E 3.88 | K 2.74 | M 1.65
F4: H 4.16 | G 4.16 | I 3.63 | E 4.55 | D 4.38 | K 4.06 | C 3.18 | L 3.36 | M 3.63 | A 4.22
E1: P 2.64 | Q 2.77 | A 2.52 | R 2.06 | M 1.89 | L 2.3 | H 2.45 | G 2.45 | C 1.16 | F 2.19 | V 3.14 | S 2.83 | D 3.69 | W 1.62 | T 2.35 | N 2.99 | Y 3.12 | K 2.64
